Experimental data reported in article PMC6028955 (The Journal of Biological Chemistry, 2018).

Target: the molecule itself
Experiment: AUC; sedimentation velocity (4 °C, 49,000 rpm) and sedimentation equilibrium; 25 mM Tris-HCl pH 7.6, 200 mM NaCl, 2 mM TCEP; SE fitted with a single species model

B1: human SSRP1 lacking the C-terminal ID regions and the HMG domain (residues 1–433) (domain or fragment, UniProt Q08945 1-433, looked up)
chain: MAETLEFNDVYQEVKGSMNDGRLRLSRQGIIFKNSKTGKVDNIQAGELTEGIWRRVALGHGLKLLTKNGHVYKYDGFRESEFEKLSDFFKTHYRLELMEKDLCVKGWNWGTVKFGGQLLSFDIGDQPVFEIPLSNVSQCTTGKNEVTLEFHQNDDAEVSLMEVRFYVPPTQEDGVDPVEAFAQNVLSKADVIQATGDAICIFRELQCLTPRGRYDIRIYPTFLHLHGKTFDYKIPYTTVLRLFLLPHKDQRQMFFVISLDPPIKQGQTRYHFLILLFSKDEDISLTLNMNEEEVEKRFEGRLTKNMSGSLYEMVSRVMKALVNRKITVPGNFQGHSGAQCITCSYKASSGLLYPLERGFIYVHKPPVHIRFDEISFVNFARGTTTTRSFDFEIETKQGTQYTFSSIEREEYGKLFDFVNAKKLNIKNRGLKEG
notes: structure-specific recognition protein-1 (SSRP1), human, residues 1–433 (PH1–PH4; lacks ID1, HMG, ID2); Homodimer by sedimentation equilibrium; predicted monomer mass 49.8 kDa; also called hSSRP1ΔCTD; hSSRP1; source: E. coli BL21 (DE3) Gold, purified (Ni-NTA, TEV treatment, anion-exchange, size-exclusion chromatography); not shown: His6, N-terminal, cleaved
  stoichiometry N: 2
